This series in a line: protein stability index of a GFP-peptide fusion (yeast GPS) (PSI 1-4); higher = more stable; sorted into four equal gates, so the index is relative within each strain. Put shortly:
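For each peptide, the protein stability index sums the read frequency in every gate after multiplying it by the gate number. Read frequencies came from plasmids that were PCR-amplified from each gate and Illumina-sequenced, with reads assigned to strains by barcodes. The gates were four equal bins of GFP/Cherry fluorescence ratio applied to mid-log yeast in leucine-free medium carrying a pooled library of tiled 17-residue yeast protein peptides fused downstream of GFP on a Cherry-expressing plasmid.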

± gives the uncertainty stated by the source.

As for SEEEEDEEENGSSDEDL [SSN2], the protein stability index reads like this: (doa10∆) 3.48 ± 0.26; (pdr5∆) 3.74 ± 0.24; (san1∆) 3.63 ± 0.12; (ubr1∆) 3.32 ± 0.17.

For IYKPLLFEIVSNADTNQ [SRB8], the protein stability index reads like this: (doa10∆) 1.71 ± 0.06; (pdr5∆) 2.11 ± 0.066; (san1∆) 2.33 ± 0.09; (ubr1∆) 1.49 ± 0.078.

On to MQEKAAHIAKNLINLSI [YCS4], for which the protein stability index turned out to be 2.15 ± 0.15 (doa10∆), 1.55 ± 0.2 (pdr5∆) and 1.46 ± 0.093 (ubr1∆).

LLLSRVRADDLSTRFNI [RRP43]: the protein stability index is, setting by setting: (doa10∆) 3.24 ± 0.091; (pdr5∆) 3.07 ± 0.063; (san1∆) 3.02 ± 0.06; (ubr1∆) 3 ± 0.049.

Take VHKLRHYLVNLTSPAFG [GRR1]: the protein stability index stood at 1.24 ± 0.04 (doa10∆), 1.38 ± 0.035 (pdr5∆), 1.34 ± 0.077 (san1∆) and 1.21 ± 0.031 (ubr1∆).

LDYQIGNSESKVEKGVN [LIN1] gave a protein stability index (doa10∆) of 3.12 ± 0.12, a protein stability index (pdr5∆) of 3.4 ± 0.18, a protein stability index (san1∆) of 2.92 ± 0.15 and a protein stability index (ubr1∆) of 3.38 ± 0.13.

With GKVTDVRSTIKFQLKKV [RPL1A], the protein stability index reads like this: (doa10∆) 3.77 ± 0.21; (san1∆) 3.01 ± 0.25; (ubr1∆) 3.46 ± 0.13.

On to LQSLTSKGYVKTQFSWQ [RPS10A], for which the protein stability index is, setting by setting: (doa10∆) 3.2 ± 0.1; (pdr5∆) 2.94 ± 0.096; (san1∆) 2.76 ± 0.086; (ubr1∆) 3.07 ± 0.065.

As for RKHKRVSPNAAPRQEIS [YAR002W/NUP60], the protein stability index runs as follows: (doa10∆) 2.92 ± 0.08; (pdr5∆) 2.89 ± 0.056; (san1∆) 2.92 ± 0.046; (ubr1∆) 2.71 ± 0.063.

Consider PVIDTQIANEFNTQQGI [YDL116W/NUP84], for which the protein stability index runs as follows: (doa10∆) 2.77 ± 0.051; (pdr5∆) 2.99 ± 0.057; (san1∆) 2.79 ± 0.042; (ubr1∆) 2.95 ± 0.047.

Regarding QRKKQSDVLRFLQRVRV [RPL15A], the protein stability index is, setting by setting: (doa10∆) 1.38 ± 0.16; (pdr5∆) 2.26 ± 0.21; (san1∆) 1.78 ± 0.26; (ubr1∆) 1.56 ± 0.099.

As for ELTKSLSIAFENGDYAA [RPN12], the protein stability index is, setting by setting: (doa10∆) 3.17 ± 0.16; (pdr5∆) 3 ± 0.11; (san1∆) 3.24 ± 0.073; (ubr1∆) 3.24 ± 0.12.

As to NTCTISTSKFESQYPIV [SWP82], the protein stability index (doa10∆) worked out at 2.57 ± 0.089, the protein stability index (pdr5∆) turned out to be 2.67 ± 0.11, the protein stability index (san1∆) was 2.97 ± 0.074 and the protein stability index (ubr1∆) was 2.81 ± 0.071.

For LNAELESKLIPQENDLE [SMC3], the protein stability index is, setting by setting: (doa10∆) 3.12 ± 0.1; (pdr5∆) 3.16 ± 0.076; (san1∆) 3.23 ± 0.075; (ubr1∆) 3.15 ± 0.057.

Sequence AIYNNPTRIRTKSSKEF [RRI2] had a protein stability index (doa10∆) of 1.41 ± 0.068, a protein stability index (pdr5∆) of 1.67 ± 0.06, a protein stability index (san1∆) of 1.68 ± 0.1 and a protein stability index (ubr1∆) of 1.55 ± 0.061.

As to ERLMTWKFKSLIEILRL [RRI2], the protein stability index (doa10∆) was determined as 2.11 ± 0.054, the protein stability index (pdr5∆) came out at 2.01 ± 0.044, the protein stability index (san1∆) turned out to be 1.68 ± 0.088 and the protein stability index (ubr1∆) stood at 2.31 ± 0.032.

Turning to GNGLVDENKVEAFKSLY [YAR002W/NUP60], the protein stability index runs as follows: (doa10∆) 3.35 ± 0.1; (pdr5∆) 3.14 ± 0.12; (san1∆) 3.53 ± 0.056; (ubr1∆) 3.3 ± 0.053.

Take SEHFDVNDNPDIEAGDD [DIS3]: the protein stability index came to 2.81 ± 0.058 (doa10∆), 2.93 ± 0.058 (pdr5∆), 2.72 ± 0.076 (san1∆) and 3.08 ± 0.045 (ubr1∆).

Take LHKIFYKVLKNNGLPEC [YCG1]: the protein stability index (doa10∆) was 1.68 ± 0.045, the protein stability index (pdr5∆) stood at 1.95 ± 0.043, the protein stability index (san1∆) came to 2.45 ± 0.049 and the protein stability index (ubr1∆) is 2.13 ± 0.04.

With EIKVGKQRFQGCNNLIK [ARP9], the protein stability index amounted to 2.76 ± 0.16 (doa10∆), 3.06 ± 0.13 (pdr5∆), 3.39 ± 0.092 (san1∆) and 3.34 ± 0.12 (ubr1∆).

The values are drawn from the supplement of paper PMC9732359.
